# Measured values taken from patent publication US20120100070A1.
# Biological target: GLP-1R-GFP stably expressed on HEK293 cells
substance,measurement,value
"GLP-1 (L-GLP-1, [Ala8]GLP-1-Ahx-Cys) (peptide)",EC50 of peptide triggered cyclic AMP (cAMP) accumulation,5 nM
